Assay results published in a protein production outcome set (Wang et al. 2014).

Test: label from the status in PepcDB records

Sequence	protein production
MRITASLRTFCHLSTPHSDSTTSRLWIDEVTAVARQRDRDSFMRIYDHFAPRLLRYLTGLNVPEGQAEELVQEVLLKLWHKAESFDPSKASLGTWLFRIARNLYIDSVRKDRGWVQVQNSLEQLERLEAPVDRTLDYSQRQEQQLNSAIQNLPTDQAKVLRMSYFEALSHREISERLDMPLGTVKSCLRLAFQKLRSRIEES	failed
SAEASSANLGSGCEEKRHEGSSSESVPPGTTISRVKLLDTMVDTFLQKLVAAGSYQRFTDCYKCFYQLQPAMTQRIYDKFIAQLQTSIREEISDIKEEGNLEAVLNALDKIVEEGKVRKEPAWCEAQRCRVQQRCSLCVQAGGQRGSEETQALPVSMAGSPSPLPGSPGAQEGGV	failed
GSSILDRAVIEHNLLSASKLYNNITFEELGALLEIPAAKAEKIASQMITEGRMNGFIDQIDGIVHFETREA	not failed
MYILIGGMGSMGSNLAKNLLKMGHTVAAVDTDPLACQYAREKIGVMAFEGSAVNTSVLLEAGVRKAGAVIAALQEDALNLALVTLSKHYGVPQIVVRMSDGDFAEPYRLAGATHIISTTELALNRVINAIEYPQVDAMMHFEQGQIEVLKLSIPPNCTIVGRSVAAIAQDPRFPSGTLIIGYQANAHEDLKIPNGNTLLEDGSTILAVTKPELVRQLIDFMGLCQS	failed
MKCNDKLAPFEVFDHVVNKKLSFRHVTMDDVDMLHSWMHEEHVIPYWKLNIPLVDYKKHLQTFLNDDHQTLMVGAINGVPMSYWESYWVKEDIIANYYPFEEHDQGIHLLIGPQEYLGQGLIYPLLLAIMQQKFQEPDTNTIVAEPDRRNKKMIHVFKKCGFQPVKEVELPDKIGLLMKCEQNVFEKRWSDWKMNKF	not failed
RYPTNNFGNCTGCSATFSVLKKRRSCSNCGNSFCSRCCSFKVPKSSMGATAPEAQRETVFVCASCNQTLSK	not failed
MKLSIHGRKITLTDAIRKYAEEKISKVEKFNDSIIKIDATLAASKLKTGNAHVTEILAYLSGSTLKATATESDLYASIDKAVDIMESLLKKHKEKRSRAKVQDDTRKKSYSFDYIVEPEEKLSDEKKLVRVYLPLKPMEISEAILQLEYLNRVFFAFTNTTTGKMAVVYKRKDGDYGVIED	failed
MLFTPEGTPMARRLEDARILMYSHDTFGLGHLRRCRAIAHALVEDYRGLNILIISGATIAGAFDYRARVDFVKIPSVIKLRNGEYTSLASHIDLHETLKMRESSIRHTAETFQPDIFIVDKEPMGLKGEVEDTLAYLKARGTVLVLGLREIMDAPHLLDAEWKRNGIMQKIDQYYDSVWVYGPPDFYDPLIGLDVPVSLRRKMDFVGFLQRSVSKGKTSIHARKDNYLLVTTGGGGDGSDLVHDVMNAYEADPTLTQKALVVLGPYMPAAERAKLVQKGEAIPYIEVIEFDNHMEELIDGATGVVAMGGYNTYCEILSFDKPALIVPRVKPREEQLLRAKRASELGLVDMLLPEQSVDPAIMAAALKRLPSRLPPSKSGSNMHLEGLDHISQTVGRWLDGRATHLAVVGAE	failed
MGVVLARGAFRERSMLTLPDFPLPDARGRFGPYGGRYVPETLIPALEELEAAYREAKKDPAFLEELDHYLRQFAGRPTPLYHAKRLSEYWGGAQVFLKREDLLHTGAHKINNTLGQALLARRMGKRRVIAETGAGQHGVSVATVAALFGLECVVYMGEEDVRRQALNVFRMKLLGAEVRPVAAGSRTLKDATNEAIRDWITNVRTTFYILGSVVGPHPYPMMVRDFQSVIGEEVKRQSLELFGRLPDALIAAVGGGSNAIGLFAPFAYLPEGRPKLIGVEAAGEGLSTGRHAASIGAGKRGVLHGSYMYLLYDHDGQITPAHSVSAGLDYPGVGPEHSYYADAGVAEYASVTDEEALEGFKLLARLEGIIPALESAHAIAYAAKVVPEMDKDQVVVINLSGRGDKDVTEVMRLLGGEL	not failed
MSVADVALSPIHRGSAFAVGGFGQSTTTHYSVKSVLVFLSVSGSTMPMLILESDSIAEVKLRIQTCNGFRVRRQKLVFSGRELARNASRVKDYGVTGGSVLHLVLKLYDPLLVTVITTCGKVFQFHVDRRRNVGYLKKRISKEGKGFPEVDDQEILFKGEKLDDNRIIDGICKDGNSVIHLLVKKSVEDTVKREEDTATGKDSLLEPLFLTPM	failed
MGTLWWNGTFFTMVHEGDQVEAVFTEDGKIVAIGTAEELRQRYSTRINQEMNCDGAYVYPLEHHHHHH	not failed
MSSDAVSKYTPGIYRTSIRLNNNTFDVEVTVDQDQIQSIHLANLSESTSAMFPLVEPVLDSLSSQIYSGQSLDDLEYSSDQKYTALMLIHAIDEAVTKAEADLEHHHHHH	not failed
MRGVRLLAVIGLVLGGLVLSGRPAQAQYAQDSLAFDLEHVFDLEYAADPQISPSGDRVVYARTVMDKMDDRRASRLWAVNADGSGHRPITAPETNASQPRWSPSGDRVAYVASTEGDGAEVFVRWMDTGQTARITQLEESPSGLSWGPEGDRLAFSMFVPAEPEPFARMPSPPEGADWAERPDVIDQTYYRSDGGGYTERGHTQLFVVSASGGTPRQITTGPYDHGGAPTWTPDGETLLISANRHADRRLDPLNTEVYAVDVASGAVTALTTRQGPDGDVALSPDGSTIAYTGFDDREQGYQVTKLYVMDRDGTNARLLTEGFDRDVQNPTFTADGEHIVFRYVDEGSTKIGRVALDGGRRVVAEHVGGTSIGRPYTSGSFSLASNGRVAFTHATPQRPADVAVAQAGREAQVLTALNDDLFGQVDLGSVEQITYESSHDGRTIEGWIVTPPGFDASQEYPLVLEIHGGPFASYGPYFSAEVQLYAAAGYVVLYTNPRGSTSYGQDFGNAIHHDYPGHDYDDLMSGVDAVLERGYVDADRLYVTGGSGGGVLTSWIVGHTDRFRAAVAAKPVINWYSWALTADMYPYGVKYWFPGLPWNHEEHYMDRSPLSYVDNVTTPTMLLTGANDYRTPMSESEQFYQALKLREVETALVRVPGASHSIAARPSHLAAKAAHVLEWFRRHGGPTPEQ	failed
GKRSTMLLRAITPQDWDAILQIQEECYSQLDPEPLHVLQSKWHVSPQSCFVFEVNESVVGYCLAHPWTTNMPPALYEPITHLPKADTLYLHDIAISAKAQGLGAGSKALMRLKQLADRFNLGSLSLVAVQGADSYWRKMGFTPKAIDKCLGSYTDDAMYMIYKL	failed
MATTKKKPIHVNVDENLKEEAEQLFDDLGLNMTSAITIFLKQSINEQAIPFMINKGNKETLQALKDIKEGNVHGGFSSVEDLMEDLNALEHHHHHH	not failed
MPNTPWSATSQNLGQDFHNWSGGLRFRPSRLDVPEDEETVAALVRAAARQGRSIRPVGSAHSSSEIYVTDDILVSMAGICGLREHDAQHHRATVGAGSQLTELSKELQAAGMTLSNFGDVATQTVGGAIGTGTHGSGRDFPNLSMMLVGGRLVTAGGEIRTFDVEEEPDFVRALRVSFGTLGILTWTTLKLEPLHDLHRQEWCLAFEPCMEVLDKLSRENRNFDFYWYPRSDEVKIRCLNPPGEEKDYGAFARLAKDETGPPHEVIPQHSDLPHRFEEMEYSMPAEAGPECLGKLRARIKERWRRSVGWRLLFRYIKADDSWLSEAYGRDSVSISLHQNATLPYWDFFLDLEPIMRDHGGRPHWAKKHSLRAAELRPLYPMWDRFLALRQEMDPGGRFLTRYLRGLLGC	failed
MATRAPASTLRQIPSGIWMLGCVSLLMDISSEIIHSLLPVFMVTTLGASALAVGLIEGAAEATALIVKVFSGVLSDYLGKRKALAVLGYGLGALSKPLFAVAPGVGTILAARLSDRIGKGIRGAPRDALVADIAPAHLRGAAFGLRQALDTVGAFLGPLIAIGLMMLWANDFRAIFWVAVVPGVLSVALLAFGVKEPQTHTGDKRVNPIRRANLARLGPAYWGVVAVGTAFALARFSEAFLILRVQQEGLPLFMAPLVLVTMNAVFAVTAYPFGKLADNCSHDKLLVAGLAVLIVADTVLAVGSHWSIALVGVALWGLHMGMTQGLLATMVADAAPADLRGTAFGVFNLASGLALLAASVMAGWLWDRHGAAATFHAGAGFCVLTIALLIHRLRNRPASGAATR	failed
MATSRTQRDVWVYVGIGAMVSALVLFSLVPLVMGLWQPRPAADGVVNGGTPLESQALGYQLVLEREPDNVNALQGLLEIRLQQKNLAAAIAPLERLGQIRTDQVQYRILLAQLKTQLEDNAGAAKVYREILTQSPHNIQALKGLSGLYAQQERPAEAVAIVQNAITQAIKAQTGAPGTVPPDQLTSLQLLLGEIYLSQNRPDQAIAIYEAASKVNGNDFRPVLAQAQVMAQTGKVKEADPFFQQAIMLAPVQYKDPIKNIALQVTNQALANQNGAPETSIPSPAPILKSE	failed
